This note sets out measurements from patent EP4386000 (dated 2024).

For assay [1], the target named is T1, mouse CD25-his (mouse, UniProt P01590).
T1 chain: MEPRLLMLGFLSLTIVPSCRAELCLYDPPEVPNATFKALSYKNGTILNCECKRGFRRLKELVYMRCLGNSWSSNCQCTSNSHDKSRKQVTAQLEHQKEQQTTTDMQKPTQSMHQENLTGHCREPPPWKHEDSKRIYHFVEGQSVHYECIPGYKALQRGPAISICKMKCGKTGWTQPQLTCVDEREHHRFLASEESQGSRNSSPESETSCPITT
Kind of assay: ELISA.

For assay [2], the target named is T2, human CD25-his (human, UniProt P01589).
T2 chain: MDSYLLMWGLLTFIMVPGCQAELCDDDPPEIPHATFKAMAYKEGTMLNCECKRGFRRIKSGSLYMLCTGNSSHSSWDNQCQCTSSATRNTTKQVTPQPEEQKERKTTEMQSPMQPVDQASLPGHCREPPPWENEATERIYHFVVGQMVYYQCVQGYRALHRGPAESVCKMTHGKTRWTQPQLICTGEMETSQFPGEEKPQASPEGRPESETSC
Briefly: SPR, 25C.

The target in assay [3] is T3, human CD25 on CHO-K1 cells (human, UniProt P01589).
T3 chain: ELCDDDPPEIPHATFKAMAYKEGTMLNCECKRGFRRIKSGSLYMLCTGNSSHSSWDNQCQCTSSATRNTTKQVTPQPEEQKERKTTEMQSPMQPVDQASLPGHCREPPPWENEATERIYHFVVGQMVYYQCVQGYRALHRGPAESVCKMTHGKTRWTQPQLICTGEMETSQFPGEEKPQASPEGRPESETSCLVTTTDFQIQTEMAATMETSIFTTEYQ
Briefly: FACS.

Assay [4] has as its target T2, human CD25-his. Kind of assay: ELISA.

B1: 2047-3H8L2 (2047-3ix) (antibody, V domains shown)
VH: QVQLKQSGAELVKPGASVKMSCKTSGYTFTDYVISWVKQRTGQGLEWIGEIYPGSGSTYYNEKFKGKATLTADISSNTAYMQLSSLTSEDSAVYFCASINFDYWGHGTTLTVSS
VL: DIVMTQSPATLSVTPGDRVSLSCRASQSISDYLHWYQQKSHESPRLLIKYASQSISGIPSRFSGSGSGSDFTLSINSVEPEDVGVYYCQNGHSFPYTFGGGTKLEIK
Turning to B1, the binding result in assay [1] was “no binding”.

B2: 2047-10H1L2 (2047-10ix) (antibody, V domains shown)
VH: QVQLQQSGPELVRPGVSVKISCKGSGYTFTDYAMHWVKQSHAKSLEWIGVISTYNGNTNYNQKFKGKATMTVDKSSSTAYMELARLTSEDSAIYYCARSYGNYPFDYWGQGTTLTVSS
VL: DIKMTQSPSSMYASLGERVTITCKASQDINSYLSWFQQKPGKSPKTLIYRANRLVDGVPSRFSGSGSGQDYSLTISSLEYEDMGIYYCLQYDEFPYTFGGGTKLEIK
B2: the binding result in assay [1] is given as “no binding”.

B3: 2046-24H2L1 (2046-24ix) (antibody, V domains shown)
VH: DVQLQESGPGLVKPSQSLSLTCTVTGYSITSDYAWNWIRQFPGNKLEWMGYISYGGTTIYNPSLKSRISITRDTSKNQFFLQLNSVTTEDTATYYCARWLLQNYYAMDYWGQGTSVTVSS
VL: DVVMTQTPLSLPVSLGDQASISCRSSQSLVHSNGNTYLHWYLQKPGQSPKVLIYKVSNRFSGVPDRFSGSGSGTDFTLKISRVEAEDLGVYFCSQNTHVPLTFGAGTKLELK
B3: the binding result in assay [1] was “no binding”.

B4: 2046-18H1L1 (2046-18ix) (antibody, V domains shown)
VH: DVQLQESGPGLVKPSQSLSLTCTVTGYSITSDYAWNWIRQFPGNKLEWMGYISYSGITIYNPSLKSRISITRDTSKNQFFLQLNSVTTEDTATYYCARWLLQIYYAMDYWGQGTSVTVSS
VL: DVVMTQTPLSLPVSLGDQASISCSSSQSLVHSNGNTYLHWYLHKPGQSPKLLIYKVSNRFSGVPDRFSGSGSGTDFTLKISRVEAEDLGVYFCSQSTHVPLTFGAGTKLELK
Regarding B4, the binding result in assay [1] is on record as “no binding”.

B5: 2046-61H1L2 (2046-61ix) (antibody)
chain 1: DVQLQESGPGLVKPSQSLSLTCTVTGYSITSDYAWNWIRQFPGNKLEWMGYISYSGGTIYNPSLKSRISITRDTSKNQFFLQLNSVTTEDTATYYCARWLLQNYYAMDYWGQGTSVTVSS
chain 2: DVVMTQTPLSLPVSLGDQASISCRSSQSLVHSNGNTYLHWNLQKPGQSPKLLIYKVSNRFSGVPDRFSGSGSGTDFTLKISRVEAEDLGVYFCSQSTHVPLTFSAGTKLELK
With B5, the affinity in assay [2], expressed as Kd, was 9.44 nM. Also, the binding result in assay [1] is “no binding”. In addition, the EC50 in assay [3] was 0.00114 µg/mL; in assay [4], 0.144 µg/mL.

B6: 2046-111H2L1 (2046-111ix) (antibody, V domains shown)
VH: DVQLQESGPGLVKPSQSLSLTCTVTGHSITSDYAWNWIRQFPGNKLEWMGYISYSGSTIYNPSLKSRISITRDTSKNQFFLQLNSVTTEDTATYYCARWLLQNYYAMDYWGQGTSVTVSS
VL: DVVMTQTPLSLPVSLGDQASISCRSSQSLVHSNGNTYLHWYLRKPGQSPKLLIYKVSNRFSGVPDRFSGSGSGTDFTLKISRVEAEDLGVYFCSQSTHVPLTFGAGTKLELK
On to B6, for which, in assay [1], the binding result is on record as “no binding”.

B7: 2046-2H1L1 (2046-2ix) (antibody, V domains shown)
VH: DVQLQESGPGLVKPSQSLSLTCTVTGYSITSDYAWNWIRHFPGNKLEWMGYITYSGSTVYNPSLKSRISITRDTSKNHFFLQLNSVTTEDTATYYCARWLLQIYYAMDYWGQGTSVTVSS
VL: DVVMTQTPLSLPVSLGDQASISCRSSQSLVHSNGNTYLHWYLQKPGQSPKLLIYKVSNRFSGVPDRFSGSGSGTDFTLKISRVEAEDLGVYFCSQSTHVPLTFGAGTKLELK
As for B7, in assay [1], the binding result is reported as “no binding”.

B8: 2046-36H2L1 (2046-36ix) (antibody, V domains shown)
VH: QIQLVQSGPELKKPGETVRISCKASGYTFTTAGMQWVQKMPGKGLKWIGWINTHSGVPKYAEDFKGRFAFSLETSASTAYLQISNLKNEDTATYFCASDYAFGYWGQGTLVTVSA
VL: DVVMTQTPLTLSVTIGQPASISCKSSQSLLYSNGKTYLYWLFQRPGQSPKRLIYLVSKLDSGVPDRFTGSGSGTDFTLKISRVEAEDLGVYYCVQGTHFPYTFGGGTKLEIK
Consider B8, for which, in assay [1], the binding result is listed as “no binding”.
